Marks after values point to notes of the source that are not given here.
B1: mFAP1: SEQ ID NO:33; variant of b11L5F.2 (protein)
chain: MSRAAQLLPGTWQTTMTNEDGQTSQGQMHFQPRSPYTLDVVAQGTISDGRPISGYGKVTVKTDDTLDVDITYPSLGNIKVQGQVTMDSPTQFKFDATTSDGKKLTGTLQRQE
modifications: (1)..(1) optionally absent
B2: b32: SEQ ID NO:12; monomeric design, activates DFHBI fluorescence (protein)
chain: MGQEVAQVLPGDWQVHMTNEDGQTSTGTVTFQPRSPYTFDVKFKGTMSDGRPITGKGKMTMKTPDTMDIDVTYSDGKKVTGKVTMKSPTQLDWDLTTSDGSKVTGTSHRQE
modifications: (1)..(1) optionally absent
B3: b11L5F: SEQ ID NO:25; b11 with a 5-residue fifth turn (protein)
chain: MCRAASLLPGTWQVTMTNEDGQTSQGQMHFQPRSPYTLDVKAQGTISDGRPISGKGKVTCKTPDTMDVDITYPSLGNMKVQGQVTLDSPTQFKFDVTTSDGSKVTGTLQRQE
modifications: (1)..(1) optionally absent
B4: b11L5F.1: SEQ ID NO:26; b11L5F triple mutant 83I_95A_103L without disulfide (protein)
chain: MSRAASLLPGTWQVTMTNEDGQTSQGQMHFQPRSPYTLDVVAQGTISDGRPISGYGKVTVKTPDTMDVDITYPSLGNMKVQGQITLDSPTQFKFDATTSDGSKLTGTLQRQE
modifications: (1)..(1) optionally absent
B5: b11: SEQ ID NO:4; monomeric design with disulfide bond, activates DFHBI fluorescence (protein)
chain: MCRAASLLPGTWQVTMTNEDGQTSQGQMHFQPRSPYTLDVKAQGTMSDGRPIQGKGKVTCKTPDTMDVDITYSDGKQVQGQVTLDSPTQFKFDVTTSDGSKVTGTLQRQE
modifications: (1)..(1) optionally absent
B6: b11L5F.2: SEQ ID NO:27; second round design from b11L5F.1 (protein)
chain: MNRAAQLLPGTWQVTMTNEDGQTSQGQMHFQPRSPYTLDIVAQGTISDGRPISGYGKVTVKTPDTMHVNITYPSLGNIKVQGQITLDSPTQFTWNSTTSDGKKLTGTLQRQE
modifications: (1)..(1) optionally absent
B7: mFAP2.3: SEQ ID NO:58 (protein)
chain: MSRAAQLLPGTWQVTMTNEDGQTSQGQMHFQPRSPYTMDVVAQGTISDGRPIVGYGKVTVKTPDTLDVDITYPSLGNIKAQGQITMDSPTQFKFDATTKGENDFHGRLTGTLQRQE
modifications: (1)..(1) optionally absent
B8: mFAP2.4: SEQ ID NO:59 (protein)
chain: MSRAAQLLPGTWQVTMTNEDGQTSQGQMHFQPRSPYTMDIVAQGTISDGRPIVGYGKATVKTPDTLDVDITYPSLGNIKAQGQITMDSPTQFKFDATTKGAGNFTGRLTGTLQRQE
modifications: (1)..(1) optionally absent
B9: mFAP2.5: SEQ ID NO:60; mutations of mFAP2.3 and mFAP2.4 combined (protein)
chain: MSRAAQLLPGTWQVTMTNEDGQTSQGQWHFQPRSPYTMDIVAQGTISDGRPIVGYGKATVKTPDTLDVDITYPSLGNIKAQGQITMDSPTQFKWDATTKGENDFHGRLTGTLQRQE
modifications: (1)..(1) optionally absent

How the values were obtained:
[1] = previously reported value, cited from earlier work
[2] = Photophysical characterization (absorbance, excitation, emission, extinction coefficient, quantum yield); type: physicochemical
[3] = Chromophore titration, fit to single binding site isotherm: DFHBI; conditions: ± SD of the fit
Protocol: (§1) Fluorescence binding assay. Protein-activated DFHBI fluorescence signals were measured in 96-well plate format (Corning 3650) on a Synergy neo2 plate reader (BioTek, Inc) with λex=450 nm or 460 nm and λem=500 nm or 510 nm. Binding reactions were performed at […] in PBS pH7.4 buffer. Protein concentrations were determined by 280 nm absorbance as described above. DFHBI (Lucerna, Inc) were resuspended in DMSO as instructed to make 100 mM stock and diluted in PBS to 0.5-10 μM. Approximate emission spectra were recorded for active designs from 490 to 600 nm.
(§2) Table 3A-C. Brightness and chromophore affinities of selected mFAP variants. Fluorescence brightness measurements at 10 μM (top table) and 100 nM (middle table) chromophore concentrations were normalized from 0 to 1 across all three chromophores (DFHBI, DFHBI-1T, and DFHO), and the normalized values for two protein concentrations tested for each chromophore at each chromophore concentration were averaged and standard deviations of the average computed. Reported values are the normalized averages and standard deviations of the means for each chromophore concentration and each chromophore. Reported relative densitometry values are the relative densitometry values normalized from 0 to 1 and represent how well each design expresses relative to one another in Lemo21(DE3) E. coli cultures. Thermodynamic dissociation constants (bottom table) are obtained by non-linear least squares fitting of chromophore titrations (n=1) to a single binding site isotherm, and values reported with the standard deviation of the fit. Where the obtained Kd values are below the protein concentration tested, the Kd and standard deviation of the fit are reported in parentheses. Values with “N/D” were not determined.

[4] = Chromophore titration, fit to single binding site isotherm: DFHBI-1T; conditions: n=1 titration; ± SD of the fit; Table 3C
Protocol: as §2

[5] = Chromophore titration, fit to single binding site isotherm: DFHO; conditions: n=1 titration; ± SD of the fit; Table 3C
Protocol: as §2

[6] = Fluorescence activation / brightness with DFHBI; type: biochemical; conditions: for Fluorescence brightness, 100 nM DFHBI / Fluorescence brightness, 10 μM DFHBI: normalized 0 to 1 across all three chromophores, average ± SD of two protein concentrations; for Activation of DFHBI fluorescence: monomeric designs; for Increase in fluorescence of the phenolate form of DFHBI: pH 7.36, versus mFAP2.2
Protocol: as §1, §2

[7] = Fluorescence brightness with DFHBI-1T; type: biochemical; conditions: normalized 0 to 1 across all three chromophores; average ± SD of two protein concentrations
Protocol: as §2

[8] = Fluorescence brightness with DFHO; type: biochemical; conditions: normalized 0 to 1 across all three chromophores; average ± SD of two protein concentrations
Protocol: as §2

[9] = system: E. coli, yeast, and mammalian cells; test: Confocal imaging of cells expressing mFAPs with DFHBI; type: cell-based; conditions: 20 μM DFHBI
Protocol: To determine whether the designed DFHBI-binding fluorescence-activating proteins function in living cells, we imaged mFAP1- and mFAP2-DFHBI complexes in E. coli, yeast, and mammalian cells by confocal microscopy. […] The quantum yield of mFAP1 and mFAP2 in complex with DFHBI is 2.0% and 2.1% respectively (Table 2).
Confocal image acquisition. Mammalian cell imaging of mFAP1 and mFAP2 was performed in NIH3T3 cells (Flp-In-3T3, Thermo Fisher Scientific, Inc). NIH3T3 cells were cultured in high-glucose DMEM, 4 mM L-glutamine, 10% fetal bovine serum (FBS, Life Technologies, Inc) at 37 degrees Celsius, 5% CO2. Cells were plated at 4×10^4 cells/mL in 35 mm glass-bottomed dishes (Matek, Inc) that were coated with poly-D-lysine. Cells were transfected 24 hours after plating with Lipofectamine™ 3000 (Thermo Fisher Scientific, Inc) at a ratio of 3 μL reagent:1 μL DNA, according to manufacturer's instructions, with […] plasmids of mFAPs or mFAP fusions (1.25 μg mCherry™ plasmid was added to the cytosolic constructs as a transfection control). Right before imaging, cell media was replaced with FluorBrite™ DMEM (Thermo Fisher Scientific, Inc) media supplemented with GlutaMax™ (Thermo Fisher Scientific, Inc) and 10% v/v FBS, and 20 μM DFHBI. […] A white light laser of 488 was used to excite the DFHBI and detected by a HyD detector, over a range of 495-550 nm. […]

[10] = Circular dichroism, thermal and GuHCl denaturation; type: physicochemical; conditions: CD
Protocol: Circular dichroism (CD). Purified protein samples were prepared at 0.5 mg/ml in 20 mM Tris buffer (150 mM NaCl, pH8.0) or PBS buffer (25 mM phosphate, 150 mM NaCl, pH7.4). Wavelength scans from 195 nm to 260 nm were recorded at 25 degrees Celsius, 75 degrees Celsius, 95 degrees Celsius and cooling back to 25 degrees Celsius. Thermal denaturation was monitored at 220 nm or 226 nm from 25 degrees Celsius to 95 degrees Celsius. Near-UV wavelength scan from 240 nm to 320 nm and tryptophan fluorescence emission were recorded in the absence and presence of 5M guanidinium chloride (GuHCl). Chemical denaturation in GuHCl was monitored by both tryptophan fluorescence and near-UV CD signal at 285 nm. The concentration of the GuHCl stock solution was measured with a refractometer (Spectronic Instruments, Inc). Far-UV CD experiments were performed on an AVIV model 420 CD spectrometer (Aviv Biomedical, Inc). Near-UV CD and tryptophan fluorescence experiments were performed on a Jasco J-1500 CD spectrometer (Jasco, Inc). Protein concentrations were determined by 280 nm absorbance with a NanoDrop™spectrophotometer (ThermoScientific, Inc). Melting temperatures were estimated by smoothing the sparse data with a Savitsky-Golay filter of order 3 and approximating the smoothed data with a cubic spline to compute derivatives. Reported Tm values are the inflection points of the melting curves.

[11] = n=1 titration, Table 3C, read-out: DFHBI Kd
[12] = obtained Kd below the protein concentration tested, read-out: DFHBI Kd, fit value in parentheses

Molecule	Kd [3, 11] [µM]	Kd [4] [µM]	Kd [5] [µM]	Fluorescence brightness, 100 nM DFHBI [6]	Fluorescence brightness, 10 μM DFHBI [6]	Fluorescence brightness, 100 nM DFHBI-1T [7]	Fluorescence brightness, 10 μM DFHBI-1T [7]	Fluorescence brightness, 100 nM DFHO [8]	Fluorescence brightness, 10 μM DFHO [8]	other results
CC1=N/C(=C\c2cc(F)c(O)c(F)c2)C(=O)N1CC(F)(F)F [DFHBI-1T]										Extinction Coefficient ([1]; Table 4): 35,400^† M^−1 · cm^−1; λabs ([1]; Table 4): 422^† nm; λem ([1]; Table 4): 495^† nm; λex ([1]; Table 4): 426^† nm; Reported Quantum Yield [1]: 0.00098^†
B1	< 0.5	10.8 ± 1	7.8 ± 2.89	0.18 ± 0.0	0.13 ± 0.02	0.01 ± 0.0	0.01 ± 0.0	0.01 ± 0.0	0.0 ± 0.0	Quantum yield in complex with DFHBI ([2]; absolute): 2.0%; Kd [3, 12]: 0.496 µM; In vivo fluorescence activation [9]: showed in vivo fluorescence activation
B2										Thermal stability [10]: undergo reversible thermal melting transitions; Absorption peak with DFHBI bound [2]: 450 nm; Emission peak with DFHBI bound [2]: 510 nm; Activation of DFHBI fluorescence [6]: found to activate DFHBI fluorescence
B3										Fluorescence activity in comparison with b11 ([6]; 100 μM protein+10 μM DFHBI): 5.2 fold; Increase of fluorescence intensity ([6]; fifth turn changed to a five-residue turn, versus b11): fourfold
B4										Higher DFHBI fluorescence ([6]; substitutions at V103, V95, V83 of b11L5F): tenfold
B5										Thermal stability [10]: undergo reversible thermal melting transitions; Absorption peak with DFHBI bound [2]: 450 nm; Emission peak with DFHBI bound [2]: 510 nm; Activation of DFHBI fluorescence [6]: found to activate DFHBI fluorescence
B6										Increase of fluorescence, second round of design ([6]; versus b11L5F.1): approximately 1.4 fold
B7	< 0.5	1.58 ± 0.34	10.4 ± 3.59	0.15 ± 0.0	0.2 ± 0.03	0.52 ± 0.02	0.67 ± 0.04	0.02 ± 0.0	0.01 ± 0.0	Kd [3, 12]: 0.146 µM; Increase in fluorescence of the phenolate form of DFHBI [6]: ~1.1 fold
B8	1.31 ± 0.1	38.7 ± 5.71	32.7 ± 14.2	0.69 ± 0.03	0.69 ± 0.06	0.01 ± 0.0	0.01 ± 0.0	0.01 ± 0.0	0.0 ± 0.0	Increase in fluorescence of the phenolate form of DFHBI [6]: ~3.4 fold
B9	1.13 ± 0.09	52.5 ± 7.48	34.2 ± 13.7	0.83 ± 0.02	0.8 ± 0.03	0.01 ± 0.0	0.01 ± 0.0	0.01 ± 0.0	0.0 ± 0.0	

From patent US20210047373A1, “BETA BARREL POLYPEPTIDES AND METHODS FOR THEIR USE” (UNIVERSITY OF WASHINGTON, priority 2018, published 2021)
